# Experimental data reported in patent US10040829B2.
# Legend:
# [1] = target: hASCT2 receptor (type 2 sodium-dependant neutral amino acid receptor-transporter) (human) (UniProt Q15758); assay: in vivo binding in SCID mice grafted with XChASCT2 cells; anti-RGS His and anti-mouse FITC, IF reading
# [2] = target: hASCT1 receptor (human) (UniProt P43007); assay: in vivo binding in SCID mice grafted with XChASCT1 cells; anti-RGS His and anti-mouse FITC, IF reading
substance,measurement,setting,value
"soluble HERV-W Env protein of Example 7 (293T cells transfected with the plasmid 460, envelope-spacer-His6)","NF/NT, Mean (fluorescent cells out of 57 cells)",[1],23
same,"NF/NT, Mean (fluorescent cells out of 77 cells)",[2],24
